Measured values published in the nanobody polyreactivity screen of Harvey et al. (2022).

Test: yeast display, Sf9 membrane polyspecificity reagent, FACS + sequencing; frameworks hold sequencing errors
Summary of the method: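 In a synthetic yeast display library (Saccharomyces cerevisiae BJ5465), nanobody expression was induced with galactose for 36–48 hours. FACS gates were set low and high (top ~1%) using anti-HA fluorescence for expression and streptavidin fluorescence for binding of the Sf9 membrane reagent. Each polyreactivity label is drawn from the gate of origin.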

Sequence: QVQLVESGGGLVQAGGSLRLSCAASGSIVRYYAMGWYSQAPGKERELVAAISYRGGTTYYADSVKGRFTISRDNAKNTVYLQMNSLKPEDTAVYYCAAGYKAAGWTQYGYWGQGTPVTVSS
- polyreactivity (PSR sort gate): high polyreactivity

Sequence: QVQLVESGGGLVQAGGSLRLSCAASGSIVSGYAMGCYRQARGKERELVDAITRSGGRTYYADSVKGRFTISRDNAKNTVYLQMNSLKPEDTAVYYCAARGGPGDDYWGQGTQETVSS
- polyreactivity (PSR sort gate): high polyreactivity

Sequence: QVQLVESGGGLVQAGGSLRLSCAASGSIVVGYAMGWYRQAPGKERELVAAITGSGTRTYYADSVKGRFTISRDNAKNTVYLQMNSLKPEDTAVYYCAAPLSYKNVKYDYWGQGTQVTVSS
- polyreactivity (PSR sort gate): low polyreactivity

Sequence: QVQLVESGGGLVQAGGSLRLSCAASGSIVVRNAMGWYRQAPGKERELVAAITYRGGSTYYADSVKGRFTISRDNAKNTVYLQMNSLNPEDTAVYYCFDVNTDVLSRVYRGWGYYYWGQGTQVTVSS
- polyreactivity (PSR sort gate): low polyreactivity

Sequence: QVQLVESGGGLVQAGGSLRLSCAASGSIYASNTMGWYRQAPGKERELVAGITKIGSSTYYADSVKGRFTISRDNAKNTVYLQMNSLKPEDTAVYYCNAYGPNIYSSRYDYWGQGTQVTVSS
- polyreactivity (PSR sort gate): low polyreactivity

Sequence: QVQLVESGGGLVQAGGSLRLSCAASGSIYAYYAMGWYRQAPGKERELVATISGGGVGTYYADSVKGRFTISRDNAKNSVYLQMNSLKPEDTAVYYCAADGAQAVIYGDRIEMDYWGQGTQVTVSS
- polyreactivity (PSR sort gate): low polyreactivity

Sequence: QVQLVESGGGLVQAGGSLRLSCAASGSIYDRYVMGWYRQAPGKERELVAAISKSGGNTYYADSVKGRFTISRDNAKNTVYLQMNSLKPEDTAVYYCNARSGRYYLGYGYWGQGTQVTVSS
- polyreactivity (PSR sort gate): high polyreactivity

Sequence: QVQLVESGGGLVQAGGSLRLSCAASGSIYEYYVMGWYRHAPGKERELVAAISYSGDSTYYADSVKGRFTISRDNAKNTVYFQMNSLKPEDTAVYYCAAQYSRVIPPGYDYWGQGSQVTVSS
- polyreactivity (PSR sort gate): high polyreactivity

Sequence: QVQLVESGGGLVQAGGSLRLSCAASGSIYGLYAMGWYRQAPGKERELVATITSGSSTNYADSVKGRFTISRDNAKNTVYLQMNSLKPEDTAVYYCAVDDLYGFDYWGQCTQVTVSS
- polyreactivity (PSR sort gate): low polyreactivity

Sequence: QVQLVESGGGLVQAGGSLRLSCAASGSIYKYYAMGWYRQAPGKERELVAALTIGGITNYADSVKGGFTISRDNATNTVYLQMTSLKPEDPAVYYCATGVYYSAIVYGGYDYWGQGTQVTVSS
- polyreactivity (PSR sort gate): low polyreactivity

Sequence: QVQLVESGGGLVQAGGSLRLSCAASGSIYLNYAMGWYRQAPGKERELVAGISNGGSTNYADSVKGRFTISRDNAKNTVYLQMKSLIPEDTAVYYCARPAYKSRGKRFDYWGQGTQVTVSS
- polyreactivity (PSR sort gate): low polyreactivity

Sequence: QVQLVESGGGLVQAGGSLRLSCAASGSIYRDALGWYRQAPGKERELVAAINFNGGRTYYADSVKGRFTISRDNAKNTVYLQMNSLKPEDTAVYYCAAVRSSNQGGFDYWGQGTQVTVSS
- polyreactivity (PSR sort gate): high polyreactivity

Sequence: QVQLVESGGGLVQAGGSLRLSCAASGSIYRDYTMGWYRQAPGKERELVAISWSSGGTNYADSVKGRFTISRDNAKNTVYLQMNSLKPEDTAVYYCAADRSTGLGDDDYWGQGTQVTVSS
- polyreactivity (PSR sort gate): low polyreactivity

Sequence: QVQLVESGGGLVQAGGSLRLSCAASGSIYRRYAMGWYRQAPGKERELVAAINQSGGRTYYADSVKGRFTISRDNAKNTVYLQMNSLKPEDTAVYYCAARYYGRVGGDSIGYNYWGQGTQVTVSS
- polyreactivity (PSR sort gate): high polyreactivity

Sequence: QVQLVESGGGLVQAGGSLRLSCAASGSIYRYAMGWYRQAPGKEREFVAAITWNGGSTYYADSVKGRFTISRDNAKNTVYLQMNSLKPEDTAVYSCAAYEKRLGYDYWGQGTQVTVSS
- polyreactivity (PSR sort gate): high polyreactivity

Sequence: QVQLVESGGGLVQAGGSLRLSCAASGSIYRYYPMGWYRQAPGKEREFVAAITYSDSDTYYADSVKGRFTISRDNAKNTVYLQMNRLKPEDTAVYYCAARFRRTRVTYYYWGQGTQVTVSS
- polyreactivity (PSR sort gate): high polyreactivity

Sequence: QVQLVESGGGLVQAGGSLRLSCAASGSIYSINAMGWYRQAPGKERELVAAISWSGGSTYYADSVKGRFTISRDNAKNTVYLQMNSLKPEDTAVYYCNAEEDEYGELDYWGQGTQVTVSS
- polyreactivity (PSR sort gate): low polyreactivity

Sequence: QVQLVESGGGLVQAGGSLRLSCAASGSIYSSYAMGWYRQAPGKERELVAAISSSGDSTYADSVKGRFTISRDNAKNTVYLQMNSLKPEDTAVYYCAVGGAGSDDYWGQGTQVTVSS
- polyreactivity (PSR sort gate): low polyreactivity

Sequence: QVQLVESGGGLVQAGGSLRLSCAASGSIYWRYAMGWYRQAPGKEMELVASITSGGGSTYYADSVKGRFTISRDNAKNTVYLQMNSLKPEDTAVYYCAAERYYSEAIFRSYDYWGQGTQVTLSS
- polyreactivity (PSR sort gate): low polyreactivity

Sequence: QVQLVESGGGLVQAGGSLRLSCAASGSIYYPYAMGRYRQAPGKERELVAAITTGGSTYYADSVKGRFTISRDNAKNTVYLQMNSLKPEDTAVYYGNKGSFPYTSKAYSYSLGGDDYWGQGTQVTVSS
- polyreactivity (PSR sort gate): low polyreactivity

Sequence: QVQLVESGGGLVQAGGSLRLSCAASGSIYYQYAMGWYRQAPGKERELVAAITYGGGSTYYADSVKGRFTISRDNAKNTVYLQMISLKPEDTAVYYCAKDLYHTVGRYDYWGQGTQVTVSS
- polyreactivity (PSR sort gate): low polyreactivity

Sequence: QVQLVESGGGLVQAGGSLRLSCAASGSLFGSYAMGWYRQAPGKEREIVASISNSGGSTYYADSVKGRFTISRDNAKNTVYLQMNSLKPEDTAVYYCAAAVYSYTYRYYYWGQGTQVTVSS
- polyreactivity (PSR sort gate): high polyreactivity

Sequence: QVQLVESGGGLVQAGGSLRLSCAASGSLFNRNVMGWYRQAPGKERELVAAMTRGGRTSYADSVKGRFTISRDNAKNTVYLQMNSLKPEDTAGYYCAARRGYWVDYWGQGTQVTVSS
- polyreactivity (PSR sort gate): high polyreactivity

Sequence: QVQLVESGGGLVQAGGSLRLSCAASGSLFSAYAMGWYRQAPGKEREFVAAITRRGGNTYYADSVKGRYTISRDNAKNTVYLQMNSLKPDDTAVYYCAADAGGGPFDYCGQGTQVTVSS
- polyreactivity (PSR sort gate): low polyreactivity

Sequence: QVQLVESGGGLVQAGGSLRLSCAASGSMFFWYVMGWYRQAPGKERELVASISSGGSTYYADSVKGRFTISRDNAKNTVYLQMNSLKPEDTAVYYCNAKSWSPAKSFSFFRFDYWGQGTQETVSS
- polyreactivity (PSR sort gate): low polyreactivity

Sequence: QVQLVESGGGLVQAGGSLRLSCAASGSMFTGYDMGWYRQAPGKERELVAAITASGSGTYYADSVKGRFTISRDNAKNTVYLQMNSLKPEDTAVYYGNAPYLFYRGDSDHYYYNEGGYWGQGTQVTVSS
- polyreactivity (PSR sort gate): high polyreactivity

Sequence: QVQLVESGGGLVQAGGSLRLSCAASGSMSYGYGMGWYRQAPGKEREVVATISGRAGSTYYADSVKGRFTISRDNAKNTVYLQINSLQPEDTAVYYCAAKWWRLTWTAGYGGRGYGYWGQGTQVTVSS
- polyreactivity (PSR sort gate): low polyreactivity

Sequence: QVQLVESGGGLVQAGGSLRLSCAASGSNAMGCYRPAPGKDSELVAVITSRGGSTYYADSVKGRFTISRDNAKNTVYLQMNSLKPEDTAVYYCAKAWYVRGTWSVHVRYGYWGQGTQVTVSS
- polyreactivity (PSR sort gate): high polyreactivity

Sequence: QVQLVESGGGLVQAGGSLRLSCAASGSNFAINAMGWYRQAPGKERELVAAIRYSTGRTYYADSVKGRFTISRDNAKNTVYLQMNSLKPEDTAVYYCAALGFTKYGSRFDYWGQGTQVTVSS
- polyreactivity (PSR sort gate): high polyreactivity

Sequence: QVQLVESGGGLVQAGGSLRLSCAASGSNFASYSMGWYRQSPGKERELVAAITDSGGSTYYADSVKGRLTSSRENGKNTVYLQMNSLKPEDTAVYYCAAYGPYFSYHDYVYWGQGTQVTVSS
- polyreactivity (PSR sort gate): low polyreactivity

Sequence: QVQLVESGGGLVQAGGSLRLSCAASGSNFDDYVMGWYRQAPGKERELVAGINSRGTSTDYADSVKGRFTISRDNAQNTVYLQMNSLKPEDTAVYYCAADDSHGYDYWGQGTQVTVSS
- polyreactivity (PSR sort gate): low polyreactivity
